The labels stand for the following.
T1: recombinant human activated Factor VII (FVIIa) (human, UniProt P08709 61-212; P08709 213-466, ten glutamate residues of the Gla domain may be gamma-carboxylated)
T1 construct: chains tethered by a disulfide bond; also called Factor VIIa; rFVIIa
T1 sequence 1: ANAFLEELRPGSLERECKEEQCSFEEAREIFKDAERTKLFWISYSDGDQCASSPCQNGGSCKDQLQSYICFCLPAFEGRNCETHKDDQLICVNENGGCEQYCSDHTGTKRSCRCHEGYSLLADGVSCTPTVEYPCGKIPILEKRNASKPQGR
T1 sequence 2: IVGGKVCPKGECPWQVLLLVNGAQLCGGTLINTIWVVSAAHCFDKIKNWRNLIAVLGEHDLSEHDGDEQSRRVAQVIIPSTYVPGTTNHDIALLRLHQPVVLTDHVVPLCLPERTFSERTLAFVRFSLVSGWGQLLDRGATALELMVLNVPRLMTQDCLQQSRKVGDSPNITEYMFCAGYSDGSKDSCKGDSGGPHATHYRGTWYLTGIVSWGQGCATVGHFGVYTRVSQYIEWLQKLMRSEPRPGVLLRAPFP

B1: VH SEQ ID NO 626 / VL SEQ ID NO 454 (antibody, IgG4, V domains shown)
VH: QVQLQESGPGLVKPSQTLSLTCTVSGYSISSDSAWSWIRQPPGKGLEWIGYIQYSGSTNYNPSLKSRVTISRDTSKNQFSLKLSSVTAADTAVYYCARSVNYYGNSFAVGPWGQGTLVTVSS
VL: EIVLTQSPATLSLSPGERATLSCRASQGVSDYLHWYQQKPGEAPRLLIKYASQPATGIPARFSGSGSGTDFTLTISSLEPEDFAVYYCQNGHSFPLTFGQGTKLEIK
notes: humanized 11F2; IgG4 S228P/kappa
B2: VH SEQ ID NO 634 / VL SEQ ID NO 382 (antibody, IgG4, V domains shown)
VH: QVQLQESGPGLVKPSQTLSLTCTVSGYSISSDSAWSWIRQPPGKGLEWIGYIQYSGSTNYNPSLKSRVTISRDTSKNQFSLKLSSVTAADTAVYYCARSVNYYGNSFAVGYWGQGTLVTVSS
VL: EIVLTQSPATLSLSPGERATLSCRASQGLSDYLHWYQQKPGEAPRLLIKYASQPATGIPARFSGSGSGTDFTLTISSLEPEDFAVYYCQNGHSFPLTFGQGTKLEIK
notes: as for B1
B3: VH SEQ ID NO 634 / VL SEQ ID NO 358 (antibody, IgG4, V domains shown)
VH: QVQLQESGPGLVKPSQTLSLTCTVSGYSISSDSAWSWIRQPPGKGLEWIGYIQYSGSTNYNPSLKSRVTISRDTSKNQFSLKLSSVTAADTAVYYCARSVNYYGNSFAVGYWGQGTLVTVSS
VL: EIVLTQSPATLSLSPGERATLSCRASQGISDYLHWYQQKPGQAPRLLIKYTSQPATGIPARFSGSGSGTDFTLTISSLEPEDFAVYYCQNGHSFPLTFGQGTKLEIK
notes: as for B1
B4: VH SEQ ID NO 634 / VL SEQ ID NO 366 (antibody, IgG4, V domains shown)
VH: QVQLQESGPGLVKPSQTLSLTCTVSGYSISSDSAWSWIRQPPGKGLEWIGYIQYSGSTNYNPSLKSRVTISRDTSKNQFSLKLSSVTAADTAVYYCARSVNYYGNSFAVGYWGQGTLVTVSS
VL: EIVLTQSPATLSLSPGERATLSCRASQGLSDYLAWYQQKPGEAPRLLIKYASQPATGIPARFSGSGSGTDFTLTISSLEPEDFAVYYCQNGHSFPLTFGQGTKLEIK
notes: as for B1
B5: VH SEQ ID NO 634 / VL SEQ ID NO 406 (antibody, IgG4, V domains shown)
VH: QVQLQESGPGLVKPSQTLSLTCTVSGYSISSDSAWSWIRQPPGKGLEWIGYIQYSGSTNYNPSLKSRVTISRDTSKNQFSLKLSSVTAADTAVYYCARSVNYYGNSFAVGYWGQGTLVTVSS
VL: EIVLTQSPATLSLSPGERATLSCRASQGVSDYLAWYQQKPGQAPRLLIKYASQPATGIPARFSGSGSGTDFTLTISSLEPEDFAVYYCQNGHSFPLTFGAGTKLEIK
notes: as for B1
B6: VH SEQ ID NO 634 / VL SEQ ID NO 310 (antibody, IgG4, V domains shown)
VH: QVQLQESGPGLVKPSQTLSLTCTVSGYSISSDSAWSWIRQPPGKGLEWIGYIQYSGSTNYNPSLKSRVTISRDTSKNQFSLKLSSVTAADTAVYYCARSVNYYGNSFAVGYWGQGTLVTVSS
VL: EIVLTQSPATLSLSPGERATLSCRASQGISDYLAWYQQKPGQAPRLLIKYASQPATGIPARFSGSGSGTDFTLTISSLEPEDFAVYYCQNGHSFPLTFGQGTKLEIK
notes: as for B1
B7: VH SEQ ID NO 626 / VL SEQ ID NO 486 (antibody, IgG4, V domains shown)
VH: QVQLQESGPGLVKPSQTLSLTCTVSGYSISSDSAWSWIRQPPGKGLEWIGYIQYSGSTNYNPSLKSRVTISRDTSKNQFSLKLSSVTAADTAVYYCARSVNYYGNSFAVGPWGQGTLVTVSS
VL: EIVLTQSPATLSLSPGERATLSCRASQGVSDYLHWYQQKPGQAPRLLIKYASQPATGIPARFSGSGSGTDFTLTISSLEPEDFGVYYCQNGHSFPLTFGQGTKLEIK
notes: as for B1
B8: VH SEQ ID NO 634 / VL SEQ ID NO 334 (antibody, IgG4, V domains shown)
VH: QVQLQESGPGLVKPSQTLSLTCTVSGYSISSDSAWSWIRQPPGKGLEWIGYIQYSGSTNYNPSLKSRVTISRDTSKNQFSLKLSSVTAADTAVYYCARSVNYYGNSFAVGYWGQGTLVTVSS
VL: EIVLTQSPATLSLSPGERATLSCRASQGISDYLHWYQQKPGQAPRLLIKYASQPATGIPARFSGSGSGTDFTLTISSLEPEDFAVYYCQNGHSFPLTFGQGTKLEIK
notes: as for B1
B9: VH SEQ ID NO 634 / VL SEQ ID NO 326 (antibody, IgG4, V domains shown)
VH: QVQLQESGPGLVKPSQTLSLTCTVSGYSISSDSAWSWIRQPPGKGLEWIGYIQYSGSTNYNPSLKSRVTISRDTSKNQFSLKLSSVTAADTAVYYCARSVNYYGNSFAVGYWGQGTLVTVSS
VL: EIVLTQSPATLSLSPGERATLSCRASQGISDYLHWYQQKPGEAPRLLIKYTSQPATGIPARFSGSGSGTDFTLTISSLEPEDFGVYYCQNGHSFPLTFGAGTKLELK
notes: as for B1
B10: VH SEQ ID NO 634 / VL SEQ ID NO 414 (antibody, IgG4, V domains shown)
VH: QVQLQESGPGLVKPSQTLSLTCTVSGYSISSDSAWSWIRQPPGKGLEWIGYIQYSGSTNYNPSLKSRVTISRDTSKNQFSLKLSSVTAADTAVYYCARSVNYYGNSFAVGYWGQGTLVTVSS
VL: EIVLTQSPATLSLSPGERATLSCRASQGVSDYLAWYQQKPGQAPRLLIKYASQPATGIPARFSGSGSGTDFTLTISSLEPEDFAVYYCQNGHSFPLTFGQGTKLEIK
notes: as for B1
B11: VH SEQ ID NO 626 / VL SEQ ID NO 478 (antibody, IgG4, V domains shown)
VH: QVQLQESGPGLVKPSQTLSLTCTVSGYSISSDSAWSWIRQPPGKGLEWIGYIQYSGSTNYNPSLKSRVTISRDTSKNQFSLKLSSVTAADTAVYYCARSVNYYGNSFAVGPWGQGTLVTVSS
VL: EIVLTQSPATLSLSPGERATLSCRASQGVSDYLHWYQQKPGQAPRLLIKYASQPATGIPARFSGSGSGTDFTLTISSLEPEDFAVYYCQQGHSFPLTFGQGTKLEIK
notes: as for B1
B12: VH SEQ ID NO 626 / VL SEQ ID NO 462 (antibody, IgG4, V domains shown)
VH: QVQLQESGPGLVKPSQTLSLTCTVSGYSISSDSAWSWIRQPPGKGLEWIGYIQYSGSTNYNPSLKSRVTISRDTSKNQFSLKLSSVTAADTAVYYCARSVNYYGNSFAVGPWGQGTLVTVSS
VL: EIVLTQSPATLSLSPGERATLSCRASQGVSDYLHWYQQKPGQAPRLLIKYASQPATGIPARFSGSGSGTDFTLTISSLEPEDFAVYYCQNGHSFPLTFGAGTKLEIK
notes: as for B1
B13: VH SEQ ID NO 626 / VL SEQ ID NO 502 (antibody, IgG4, V domains shown)
VH: QVQLQESGPGLVKPSQTLSLTCTVSGYSISSDSAWSWIRQPPGKGLEWIGYIQYSGSTNYNPSLKSRVTISRDTSKNQFSLKLSSVTAADTAVYYCARSVNYYGNSFAVGPWGQGTLVTVSS
VL: EIVLTQSPATLSLSPGERATLSCRASQGVSDYLHWYQQKPGQAPRLLIKYTSQPATGIPARFSGSGSGTDFTLTISSLEPEDFAVYYCQNGHSFPLTFGQGTKLEIK
notes: as for B1
B14: VH SEQ ID NO 634 / VL SEQ ID NO 350 (antibody, IgG4, V domains shown)
VH: QVQLQESGPGLVKPSQTLSLTCTVSGYSISSDSAWSWIRQPPGKGLEWIGYIQYSGSTNYNPSLKSRVTISRDTSKNQFSLKLSSVTAADTAVYYCARSVNYYGNSFAVGYWGQGTLVTVSS
VL: EIVLTQSPATLSLSPGERATLSCRASQGISDYLHWYQQKPGQAPRLLIKYTSQPATGIPARFSGSGSGTDFTLTISSLEPEDFAVYYCQNGHSFPLTFGAGTKLELK
notes: as for B1
B15: VH SEQ ID NO 634 / VL SEQ ID NO 390 (antibody, IgG4, V domains shown)
VH: QVQLQESGPGLVKPSQTLSLTCTVSGYSISSDSAWSWIRQPPGKGLEWIGYIQYSGSTNYNPSLKSRVTISRDTSKNQFSLKLSSVTAADTAVYYCARSVNYYGNSFAVGYWGQGTLVTVSS
VL: EIVLTQSPATLSLSPGERATLSCRASQGVSDYLAWYQQKPGEAPRLLIKYASQPATGIPARFSGSGSGTDFTLTISSLEPEDFAVYYCQNGHSFPLTFGQGTKLEIK
notes: as for B1
B16: VH SEQ ID NO 634 / VL SEQ ID NO 342 (antibody, IgG4, V domains shown)
VH: QVQLQESGPGLVKPSQTLSLTCTVSGYSISSDSAWSWIRQPPGKGLEWIGYIQYSGSTNYNPSLKSRVTISRDTSKNQFSLKLSSVTAADTAVYYCARSVNYYGNSFAVGYWGQGTLVTVSS
VL: EIVLTQSPATLSLSPGERATLSCRASQGISDYLHWYQQKPGQAPRLLIKYTSQPATGIPARFSGSGSGRDFTLTISSLEPEDFAVYYCQNGHSFPLTFGAGTKLELK
notes: as for B1
B17: VH SEQ ID NO 634 / VL SEQ ID NO 374 (antibody, IgG4, V domains shown)
VH: QVQLQESGPGLVKPSQTLSLTCTVSGYSISSDSAWSWIRQPPGKGLEWIGYIQYSGSTNYNPSLKSRVTISRDTSKNQFSLKLSSVTAADTAVYYCARSVNYYGNSFAVGYWGQGTLVTVSS
VL: EIVLTQSPATLSLSPGERATLSCRASQGLSDYLAWYQQKPGQAPRLLIKYTSQPATGIPARFSGSGSGTDFTLTISSLEPEDFAVYYCQNGHSFPLTFGQGTKLEIK
notes: as for B1
B18: VH SEQ ID NO 626 / VL SEQ ID NO 494 (antibody, IgG4, V domains shown)
VH: QVQLQESGPGLVKPSQTLSLTCTVSGYSISSDSAWSWIRQPPGKGLEWIGYIQYSGSTNYNPSLKSRVTISRDTSKNQFSLKLSSVTAADTAVYYCARSVNYYGNSFAVGPWGQGTLVTVSS
VL: EIVLTQSPATLSLSPGERATLSCRASQGVSDYLHWYQQKPGQAPRLLIKYASQPATGIPARFSGSGSGTDFTLTISSLEPEDVAVYYCQNGHSFPLTFGQGTKLEIK
notes: as for B1
B19: VH SEQ ID NO 634 / VL SEQ ID NO 318 (antibody, IgG4, V domains shown)
VH: QVQLQESGPGLVKPSQTLSLTCTVSGYSISSDSAWSWIRQPPGKGLEWIGYIQYSGSTNYNPSLKSRVTISRDTSKNQFSLKLSSVTAADTAVYYCARSVNYYGNSFAVGYWGQGTLVTVSS
VL: EIVLTQSPATLSLSPGERATLSCRASQGISDYLHWYQQKPGEAPRLLIKYTSQPATGIPARFSGSGSGTDFTLTISSLEPEDFAVYYCQNGHSFPLTFGQGTKLEIK
notes: as for B1
B20: VH SEQ ID NO 634 / VL SEQ ID NO 398 (antibody, IgG4, V domains shown)
VH: QVQLQESGPGLVKPSQTLSLTCTVSGYSISSDSAWSWIRQPPGKGLEWIGYIQYSGSTNYNPSLKSRVTISRDTSKNQFSLKLSSVTAADTAVYYCARSVNYYGNSFAVGYWGQGTLVTVSS
VL: EIVLTQSPATLSLSPGERATLSCRASQGVSDYLAWYQQKPGEAPRLLIKYTSQPATGIPARFSGSGSGTDFTLTISSLEPEDFAVYYCQNGHSFPLTFGQGTKLEIK
notes: as for B1

For orientation: Kd means the concentration at which binding is half-saturated.

The experiment addresses T1, recombinant human activated Factor VII …. Description: BLI (Fortebio). Background: BLI is a label-free optical method that tracks binding on a fibre tip over time.
On to B1, for which the dissociation constant (Kd) amounted to 1.4 nM.

For the molecule B2, the equilibrium dissociation constant (Kd) amounted to 1.2 nM.

Take B3: the equilibrium dissociation constant (Kd) was 0.82 nM.

With B4, the Kd was 3.1 nM.

In the case of B5, the dissociation constant Kd is 4.2 nM.

Consider B6, for which the Kd was found to be 2.1 nM.

With B7, the Kd is 1.6 nM.

Take B8: the dissociation constant Kd worked out at 1 nM.

With B9, the Kd was found to be 0.9 nM.

Turning to B10, the Kd is 4.6 nM.

B11: the dissociation constant Kd amounted to 2.5 nM.

With B12, the Kd stood at 1.4 nM.

With B13, the Kd stood at 1.8 nM.

Regarding B14, the Kd came out at 1.2 nM.

For the molecule B15, the Kd amounted to 4.3 nM.

Take B16: the dissociation constant (Kd) is 1 nM.

Take B17: the Kd turned out to be 4.5 nM.

For B18, the Kd is 1.8 nM.

Turning to B19, the Kd worked out at 0.86 nM.

On to B20, for which the Kd came to 8.2 nM.
